B1: Gal4-HIF1α(574-603) (other)
chain: MKLLSSIEQACDICRLKKLKCSKEKPKCAKCLKNNWECRYSPKTKRSPLTRAHLTEVESRLERLEQLFLLIFPREDLDMILKMDSLQDIKALLTGLFVQDNVNKDAVTDRLASVETDMPLTLRQHRISATSSSEESSNKGQRQLTVSLRSFDQLSPLESSSASPESASPQSTVTVFQ
B2: Gal4-HIF1α(498-574)L574S (other, not shown: large carriers; small tags and cut ends)
chain: TPSPSDGSTRQSSPEPNSPSEYCFYVDSDMVNEFKLELVEKLFAEDTEAKNPFSTQDTDLDLEMLAPYIPMDDDFQS
B3: Gal4-HIF1α(498-603)L574S (other, not shown: large carriers; small tags and cut ends)
chain: TPSPSDGSTRQSSPEPNSPSEYCFYVDSDMVNEFKLELVEKLFAEDTEAKNPFSTQDTDLDLEMLAPYIPMDDDFQSRSFDQLSPLESSSASPESASPQSTVTVFQ
notes: also called Gal4-C-ODD L574S mutant
B4: Gal4-HIF1α(401-603) with Pro-564 mutated to alanine (other, not shown: large carriers; small tags and cut ends)
chain: APAAGDTIISLDFGSNDTETDDQQLEEVPLYNDVMLPSPNEKLQNINLAMSPLPTAETPKPLRSSADPALNQEVALKLEPNPESLELSFTMPQIQDQTPSPSDGSTRQSSPEPNSPSEYCFYVDSDMVNEFKLELVEKLFAEDTEAKNPFSTQDTDLDLEMLAAYIPMDDDFQLRSFDQLSPLESSSASPESASPQSTVTVFQ
B5: V5-tagged PHD3/HPH1 (enzyme, human, UniProt Q9H6Z9 1-239, looked up)
chain: MPLGHIMRLDLEKIALEYIVPCLHEVGFCYLDNFLGEVVGDCVLERVKQLHCTGALRDGQLAGPRAGVSKRHLRGDQITWIGGNEEGCEAISFLLSLIDRLVLYCGSRLGKYYVKERSKAMVACYPGNGTGYVRHVDNPNGDGRCITCIYYLNKNWDAKLHGGILRIFPEGKSFIADVEPIFDRLLFFWSDRRNPHEVQPSYATRYAMTVWYFDAEERAEAKKKFRNLTRKTESALTED
notes: V5/His-tagged expression plasmid; not shown: V5/His tag
B6: Gal4-HIF1α(530-573) (other)
chain: MKLLSSIEQACDICRLKKLKCSKEKPKCAKCLKNNWECRYSPKTKRSPLTRAHLTEVESRLERLEQLFLLIFPREDLDMILKMDSLQDIKALLTGLFVQDNVNKDAVTDRLASVETDMPLTLRQHRISATSSSEESSNKGQRQLTVSEFKLELVEKLFAEDTEAKNPFSTQDTDLDLEMLAPYIPMDDDFQ
B7: Gal4-HIF1α(498-603) (other)
chain: MKLLSSIEQACDICRLKKLKCSKEKPKCAKCLKNNWECRYSPKTKRSPLTRAHLTEVESRLERLEQLFLLIFPREDLDMILKMDSLQDIKALLTGLFVQDNVNKDAVTDRLASVETDMPLTLRQHRISATSSSEESSNKGQRQLTVSTPSPSDGSTRQSSPEPNSPSEYCFYVDSDMVNEFKLELVEKLFAEDTEAKNPFSTQDTDLDLEMLAPYIPMDDDFQLRSFDQLSPLESSSASPESASPQSTVTVFQ
notes: also called Gal4-C-ODD; C-ODD
B8: Gal4-HIF1α(498-574) (other)
chain: MKLLSSIEQACDICRLKKLKCSKEKPKCAKCLKNNWECRYSPKTKRSPLTRAHLTEVESRLERLEQLFLLIFPREDLDMILKMDSLQDIKALLTGLFVQDNVNKDAVTDRLASVETDMPLTLRQHRISATSSSEESSNKGQRQLTVSTPSPSDGSTRQSSPEPNSPSEYCFYVDSDMVNEFKLELVEKLFAEDTEAKNPFSTQDTDLDLEMLAPYIPMDDDFQL

Columns and labels:
[1] = molecular target: T1, VHL protein, HA-tagged, in vitro translated from p(HA)VHL (UniProt P40337 1-213); test: in vitro co-immunoprecipitation with anti-VHL, 35S-labeled Gal4 fusion
T1 construct: not shown: HA tag
T1 sequence (P40337 whole entry, the tested form may be a part): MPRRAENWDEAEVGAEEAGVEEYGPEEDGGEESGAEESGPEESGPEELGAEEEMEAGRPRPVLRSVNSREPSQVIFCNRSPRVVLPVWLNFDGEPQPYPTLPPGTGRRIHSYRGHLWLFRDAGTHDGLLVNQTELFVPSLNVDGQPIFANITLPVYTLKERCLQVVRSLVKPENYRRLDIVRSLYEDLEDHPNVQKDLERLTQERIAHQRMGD

[2] = molecular target: T2, VHL protein (endogenous, in Hep3B / 293 cell extracts) (UniProt P40337 1-213, limits assumed); test: cell-based or functional assay
T2 sequence (P40337 whole entry, the tested form may be a part): as above

V5-tagged PHD2/HPH2 = molecular target: T3, V5-tagged PHD2/HPH2 (human, UniProt Q9GZT9 1-426, limits assumed); test: co-immunoprecipitation with anti-Gal4, Western blot with anti-V5, 293 cells with Cbz-LLL
T3 construct: V5/His-tagged expression plasmid; also called HIF prolyl-4-hydroxylase; not shown: V5/His tag
T3 sequence (Q9GZT9 whole entry, the tested form may be a part): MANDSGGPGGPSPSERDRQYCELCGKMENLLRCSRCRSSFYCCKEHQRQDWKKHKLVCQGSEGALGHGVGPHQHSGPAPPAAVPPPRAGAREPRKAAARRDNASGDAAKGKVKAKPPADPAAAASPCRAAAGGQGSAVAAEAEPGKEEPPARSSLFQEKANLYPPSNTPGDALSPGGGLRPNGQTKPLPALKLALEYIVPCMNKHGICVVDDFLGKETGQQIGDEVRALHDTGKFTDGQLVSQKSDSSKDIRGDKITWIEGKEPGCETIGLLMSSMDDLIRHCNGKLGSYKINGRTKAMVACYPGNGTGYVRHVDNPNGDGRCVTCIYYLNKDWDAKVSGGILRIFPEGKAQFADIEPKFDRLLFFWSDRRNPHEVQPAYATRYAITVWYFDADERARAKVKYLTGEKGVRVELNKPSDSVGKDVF

Gal4-HIF1α(498-603) = molecular target: B7; test: as above
[3] = molecular target: T2, VHL protein (endogenous, in Hep3B / 293 …); test: EMSA super-shift with anti-VHL, transfected 293 cells
V5-tagged PHD1/HPH3 = molecular target: T4, V5-tagged PHD1/HPH3 (human, UniProt Q96KS0 1-407, limits assumed); test: co-immunoprecipitation with anti-Gal4, Western blot with anti-V5, 293 cells with Cbz-LLL
T4 construct: V5/His-tagged expression plasmid; not shown: V5/His tag
T4 sequence (Q96KS0 whole entry, the tested form may be a part): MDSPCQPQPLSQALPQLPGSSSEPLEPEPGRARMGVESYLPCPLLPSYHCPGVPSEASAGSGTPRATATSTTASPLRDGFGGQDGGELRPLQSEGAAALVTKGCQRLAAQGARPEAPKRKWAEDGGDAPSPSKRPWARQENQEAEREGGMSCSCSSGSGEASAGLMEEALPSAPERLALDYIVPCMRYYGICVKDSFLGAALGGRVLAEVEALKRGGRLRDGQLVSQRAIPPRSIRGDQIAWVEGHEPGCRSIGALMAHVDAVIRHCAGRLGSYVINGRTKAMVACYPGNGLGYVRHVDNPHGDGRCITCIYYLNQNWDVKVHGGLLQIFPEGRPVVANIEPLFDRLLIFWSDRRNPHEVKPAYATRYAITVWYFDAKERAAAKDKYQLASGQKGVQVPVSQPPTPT

B1: no binding [1].

B2: no binding [1].

With B3 the “Gal4 luciferase reporter activity (Hep3B cells) under oxygenated conditions, in comparison to the wild-type” value [2] was 4.3 fold increase, the “expression level (Western blot, 293 cells), in comparison to Gal4-HIF1α(498-603)” value [2] was 7 fold increase and the binding result [1] was “no binding”. B3: no binding (V5-tagged PHD2/HPH2).

B4: no binding [1].

B5: no binding (Gal4-HIF1α(498-603)).

B6: no binding [1]; no binding [3].

B7: no binding (V5-tagged PHD1/HPH3).

In the case of B8, the “Gal4 luciferase reporter activity (Hep3B cells), in comparison to Gal4-HIF1α(498-573)” value [2] is reported as 6.5 fold decrease and the “protein levels under normoxia (Western blot, 293 cells), in comparison to Gal4-HIF1α(498-573)” value [2] is reported as about 3 fold decrease.
